Source: patent US20210395773A1, “IN VIVO CONTROLLED COMBINATION THERAPY FOR TREATMENT OF CANCER” (PRECIGEN, INC., priority 2018, published 2021)
Marks after values point to notes of the source that are not given here.

Assays:
[1] = Phase 1 Ad+V with nivolumab in rGBM: safety (adverse events); type: in vivo, human; conditions: by relatedness
Description: (§1) Ad was administered by intratumoral injection (using a dose of 2×10^11 vp (2e11 vp)) along with daily veledimex (V) (at doses of 10-20 mg) QDx15 PO with nivolumab intravenous infusions (at doses of 1-3 mg/kg) at Day (−)7 (i.e., 7 days prior to administration of Ad+V), at Day 15 (after administration of Ad+V), then Q2W (i.e., once every 2-weeks).

IL-12 = assay: Phase 1 Ad+V with nivolumab in rGBM: serum IL-12; type: in vivo, human
Description: as §1

[2] = tested on: cytotoxic T cells and Tregs in peripheral blood; assay: Phase 1 Ad+V with nivolumab in rGBM: peripheral blood flow cytometry; type: in vivo, human; conditions: after nivolumab alone
Description: Methods: An open label, dose escalation Phase 1 study evaluating safety and tolerability of local, inducible IL-12 expression in combination with nivolumab in adult subjects with recurrent glioblastoma (rGBM) was commenced. Ad was administered by intratumoral injection (using a dose of 2×10^11 vp (2e11 vp)) along with daily veledimex (V) (at doses of 10-20 mg) QDx15 PO with nivolumab intravenous infusions (at doses of 1-3 mg/kg) at Day (−)7 (i.e., 7 days prior to administration of Ad+V), at Day 15 (after administration of Ad+V), then Q2W (i.e., once every 2-weeks).

[3] = Veledimex levels in blood and CSF after oral gavage (blood-brain barrier crossing); type: in vivo, C57BL/6 mice; conditions: PO 450 or 1,200 mg/m2/day; normal C57BL/6 and orthotopic GL-261 glioma mice; 24 hours post-veledimex
Description: To generate orthotopic GL-261 glioma mice, a group of C57BL/6 mice received 1×10^5 GL-261 glioma cells via intracranial injection ˜2 mm distal to the intersection of the coronal and sagittal suture. On day 5, the animals were randomly assigned to one of the treatment groups. GL-261, a murine glioma tumor cell line, was purchased from American Type Culture Collection (Manassas, Va.).
Veledimex was administered to normal C57BL/6 mice or orthotopic GL-261 glioma mice via oral gavage (PO) at 450 mg/m2/day or 1,200 mg/m^2/day. Terminal blood and CSF were collected for normal C57BL/6 mice or orthotopic GL-261 glioma mice after 2 days of treatment, and for orthotopic GL-261 glioma mice after 13 days of treatment.

[4] = Phase 1 Main Study: veledimex in plasma and tumor; type: in vivo, human
Description: FIGS. 21A-21D show a series of graphs depicting veledimex, IL-12 and IFN-γ concentrations upon treatment with veledimex. […] Each symbol represents plasma from a single patient. […] Veledimex was administered to each patient approximately 3 hours before the start of the craniotomy. Serum and tumor at the time of resection were then assayed for veledimex levels.
This study is investigating two intratumoral Ad-RTS-hIL-12 doses (2×10^11 vp or 1×10^12 vp) and escalating veledimex doses (10 mg to 40 mg) to determine the safe and tolerable dose based on the safety profiles observed in the presence of variable corticosteroid exposure. Group 1 received one veledimex dose before a standard-of-care resection procedure, Ad was administered by freehand intratumoral injection, then continued with oral V QD for 14 days. Subjects not scheduled for tumor resection (Group 2) received Ad-RTS-hIL-12 (2×10^11 vp or 1×10^12 vp) by stereotactic injection and then continued on oral veledimex for 14 days.

GL-261 medullary glioma = conditions: vehicle mOS 16 days
Description: Ad-RTS-hIL-12 (Ad) is a recombinant, adenoviral-delivered, gene therapy for expression of interleukin-12 (IL-12) under the control of an orally administered activator ligand, veledimex (V), acting in concert with a ligand-inducible gene switch (also referred to as “RTS®”).

[5] = Cohort 1: Ad + V (10 mg) Nivolumab (1 mg/kg) N = 3
[6] = Cohort 2: Ad + V (10 mg) Nivolumab (3 mg/kg) N = 3
[7] = Cohort 3: Ad + V (20 mg) Nivolumab (3 mg/kg) N = 2

Nivolumab: antibody that binds PD-1; heavy and light chains SEQ ID NO: 10 and 11
Related ≥ Grade 3 AEs: ALT increased [1, 5]: 0
Related ≥ Grade 3 AEs: Brain oedema (cerebral edema) [1, 5]: 1 (33%)
Related ≥ Grade 3 AEs: Lipase increased [1, 5]: 0
Related ≥ Grade 3 AEs: Lymphocyte count Decreased [1, 5]: 0
Related ≥ Grade 3 AEs: ALT increased [1, 6]: 0
Related ≥ Grade 3 AEs: Brain oedema (cerebral edema) [1, 6]: 0
Related ≥ Grade 3 AEs: Lipase increased [1, 6]: 1 (33%)
Related ≥ Grade 3 AEs: Lymphocyte count Decreased ([1]; Cohort 2: Ad + V (10 mg) Nivolumab (3 mg/kg) N = 3, one AE related to both): 1 (33%)*
Related ≥ Grade 3 AEs: ALT increased [1, 7]: 0
Related ≥ Grade 3 AEs: Brain oedema (cerebral edema) [1, 7]: 0
Related ≥ Grade 3 AEs: Lipase increased [1, 7]: 0
Related ≥ Grade 3 AEs: Lymphocyte count Decreased [1, 7]: 0
related SAEs ([1]; Cohorts 1-3): One SAE of brain oedema (cerebral edema) was considered related to nivolumab alone
peripheral IL-12 at Day 0 (median) (IL-12; after nivolumab alone (Day -7 dose), median baseline 0.9 pg/ml): 1.0 pg/mL
impact of pre-dosing on cytokine levels prior to Ad+V (IL-12; nivolumab Day -7): did not have an impact on cytokine levels
Tregs (FoxP3) at Day 0 ([2]; baseline 1.5%): 0.8%
peripheral cytotoxic T cells CD3+CD8+ at Day 0 ([2]; median baseline 23%): 26%

CCC[C@@H](N(NC(=O)c1cccc(OC)c1CC)C(=O)c1cc(C)cc(C)c1)C(C)(C)C [veledimex, (R)—N′-(3,5-dimethylbenzoyl)-N′-(2,2-dimethylhexan-3-yl)-2-ethyl-3-methoxybenzohydrazide]
crossing of the blood-brain barrier by orally administered veledimex [3]: crosses the blood-brain barrier
plasma and tumor V peak PK levels versus dose ([4]; V 10-40 mg): dose dependent
Kp ([4]; human, tumor (relative to plasma), oral, Main Study, tumor vs plasma at resection, about 3 hours after V, read-out: V tumor penetration): ~0.4
crossing of the blood-brain-barrier ([4]; rGBM patients): crosses the blood-brain-barrier

Cn1nnc2c(C(N)=O)ncn2c1=O [temozolomide]
mOS (GL-261 medullary glioma): 25 days
